In PMC11931385, “Structural and functional analysis of cancer-associated missense variants in the retinoblastoma protein pocket domain” (The Journal of Biological Chemistry, 2025):
No end group written: not given here. TMR = tetramethyl rhodamine dye

T1: Rb^P Q504E (human, UniProt P06400 380-788, Q504E)
T1 construct: also called variant 19
T1 sequence (looked up): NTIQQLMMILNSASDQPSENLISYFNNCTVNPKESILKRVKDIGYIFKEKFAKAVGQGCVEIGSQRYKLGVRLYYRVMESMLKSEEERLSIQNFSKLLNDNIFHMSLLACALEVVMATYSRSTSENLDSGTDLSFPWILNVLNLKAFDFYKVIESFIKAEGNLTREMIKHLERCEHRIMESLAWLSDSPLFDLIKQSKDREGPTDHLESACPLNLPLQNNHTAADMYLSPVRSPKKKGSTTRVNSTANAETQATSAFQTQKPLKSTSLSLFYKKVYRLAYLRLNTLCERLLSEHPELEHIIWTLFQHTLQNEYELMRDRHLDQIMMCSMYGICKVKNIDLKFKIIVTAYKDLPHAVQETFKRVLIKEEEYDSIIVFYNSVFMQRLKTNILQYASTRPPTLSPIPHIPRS

T2: Rb^P R556Q (human, UniProt P06400 380-788, R556Q)
T2 construct: also called variant 30
T2 sequence (looked up): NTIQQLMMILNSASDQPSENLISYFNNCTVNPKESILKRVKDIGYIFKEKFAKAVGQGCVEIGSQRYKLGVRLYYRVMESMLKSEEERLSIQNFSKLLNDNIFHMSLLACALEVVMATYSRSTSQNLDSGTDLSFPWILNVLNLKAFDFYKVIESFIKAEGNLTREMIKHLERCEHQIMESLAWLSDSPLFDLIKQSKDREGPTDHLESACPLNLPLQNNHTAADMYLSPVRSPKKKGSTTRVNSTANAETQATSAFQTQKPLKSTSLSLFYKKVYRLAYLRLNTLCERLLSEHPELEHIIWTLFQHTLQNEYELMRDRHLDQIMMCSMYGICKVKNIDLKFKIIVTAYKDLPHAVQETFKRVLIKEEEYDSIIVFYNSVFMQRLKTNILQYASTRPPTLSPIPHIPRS

T3: Rb^P D604G (human, UniProt P06400 380-788, D604G)
T3 construct: also called variant 36
T3 sequence (looked up): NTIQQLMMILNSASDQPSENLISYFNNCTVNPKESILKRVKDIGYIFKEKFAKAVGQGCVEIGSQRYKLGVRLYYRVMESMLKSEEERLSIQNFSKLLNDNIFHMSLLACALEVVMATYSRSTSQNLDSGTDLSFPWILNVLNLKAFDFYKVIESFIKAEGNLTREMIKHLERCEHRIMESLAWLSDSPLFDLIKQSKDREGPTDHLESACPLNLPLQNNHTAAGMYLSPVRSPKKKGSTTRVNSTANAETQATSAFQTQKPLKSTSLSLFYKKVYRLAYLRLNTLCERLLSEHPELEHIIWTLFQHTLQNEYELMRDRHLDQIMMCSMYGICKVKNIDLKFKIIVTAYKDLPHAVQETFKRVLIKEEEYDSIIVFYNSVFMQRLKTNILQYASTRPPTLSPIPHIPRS

T4: Rb^P S671F (human, UniProt P06400 380-788, S671F)
T4 construct: also called variant 53
T4 sequence (looked up): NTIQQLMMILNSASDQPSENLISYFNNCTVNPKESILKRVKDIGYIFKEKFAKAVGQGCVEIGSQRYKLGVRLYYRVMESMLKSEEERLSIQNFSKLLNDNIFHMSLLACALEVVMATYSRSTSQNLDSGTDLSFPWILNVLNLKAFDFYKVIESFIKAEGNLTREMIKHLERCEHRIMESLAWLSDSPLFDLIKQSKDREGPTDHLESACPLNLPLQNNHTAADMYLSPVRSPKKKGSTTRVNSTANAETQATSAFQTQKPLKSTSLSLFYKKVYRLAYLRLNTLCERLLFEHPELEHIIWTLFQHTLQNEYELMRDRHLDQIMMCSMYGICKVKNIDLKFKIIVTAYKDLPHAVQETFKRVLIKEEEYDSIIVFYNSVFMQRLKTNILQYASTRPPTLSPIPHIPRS

T5: Rb^P V754G (human, UniProt P06400 380-788, V754G)
T5 construct: also called variant 73
T5 sequence (looked up): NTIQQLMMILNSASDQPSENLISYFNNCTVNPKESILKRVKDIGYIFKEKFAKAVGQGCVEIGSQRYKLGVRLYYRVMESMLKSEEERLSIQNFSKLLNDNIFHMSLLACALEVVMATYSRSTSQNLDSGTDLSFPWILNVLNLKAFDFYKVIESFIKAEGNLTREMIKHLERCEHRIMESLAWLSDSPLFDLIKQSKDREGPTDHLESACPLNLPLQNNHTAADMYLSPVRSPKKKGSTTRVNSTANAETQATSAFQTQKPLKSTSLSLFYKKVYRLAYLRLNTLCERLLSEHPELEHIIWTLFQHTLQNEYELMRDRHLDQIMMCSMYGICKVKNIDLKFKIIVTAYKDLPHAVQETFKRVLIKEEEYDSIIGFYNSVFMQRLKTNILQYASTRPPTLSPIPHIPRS


Experiments:
Assay in all cases: fluorescence polarisation; 25 °C; unlabeled Rb^P titrated against 1.5 nM TMR-E2F1^TD or 7.5 nM TMR-E7^LxCxE; 25 mM Tris pH 8.0, 200 mM NaCl, 1 mM DTT, 0.1% Tween-20; 2 min incubation; quadratic fit; apparent Kd for the variants, Kd for WT
Conditions in all cases: both partners purified
Rb^P Q504E = target: T1, Rb^P Q504E
Rb^P R556Q = target: T2, Rb^P R556Q
Rb^P D604G = target: T3, Rb^P D604G
Rb^P S671F = target: T4, Rb^P S671F
Rb^P V754G = target: T5, Rb^P V754G

Binder	Kd (Rb^P Q504E)	Kd (Rb^P R556Q)	Kd (Rb^P D604G)	Kd (Rb^P S671F)	Kd (Rb^P V754G)
{TMR}-GEGIRDLFDCDFGDLTPLD (also called E2F^TD; source: synthetic peptide, bought: GenScript) [TMR-E2F1^TD, peptide of the E2F1 transactivation domain]	0.018 µM	0.022 µM	0.027 µM	0.024 µM	0.02 µM
DLYCYEQLN (also: TMR label, position not given here, source: synthetic peptide, bought: GenScript) [TMR-E7^LxCxE, LxCxE peptide of the E7 oncoprotein from HPV]	0.005 µM	0.005 µM	0.013 µM	0.009 µM	0.007 µM
